Laboratory results: the RNAGym collection of RNA variant scans (doi:10.7554/elife.80360)

B1: Hairpin Ribozyme (parent)
chain: GUCCUCUUUCACGUGCGCGUGAAAGAGAGAAGUGAACCAGAGAAACACACGUUGUGGUAUAUUACCUGGUA

Variants of: B1
Test: self-cleavage, relative activity (ratio to wild type); higher = more cleavage; co-transcriptional

Question: With AUCAUCUUUCACGUGCGCGUGAAAGAGAGAAGUGAACCAGAGAAACACACGUUGUGGUAUAUUACCUGGUA [G1A C4A] as the variant, how does the self-cleavage read?
Answer: 0.248

Question: Which self-cleavage does the source give for AUCGUCUUUCACGUGCGCGUGAAAGAGAGAAGUGAACCAGAGAAACACACGUUGUGGUAUAUUACCUGGUA [G1A C4G] here?
Answer: 0.149

Question: Which self-cleavage does the source give for AUCCUAUUUCACGUGCGCGUGAAAGAGAGAAGUGAACCAGAGAAACACACGUUGUGGUAUAUUACCUGGUA [G1A C6A] here?
Answer: 0.197

Question: Which self-cleavage does the source give for AUCCUCUUUAACGUGCGCGUGAAAGAGAGAAGUGAACCAGAGAAACACACGUUGUGGUAUAUUACCUGGUA [G1A C10A] here?
Answer: 0.175

Question: For AUCCUCUUUCAAGUGCGCGUGAAAGAGAGAAGUGAACCAGAGAAACACACGUUGUGGUAUAUUACCUGGUA [G1A C12A], which self-cleavage is on record?
Answer: 0.131

Question: With AUCCUCUUUCAGGUGCGCGUGAAAGAGAGAAGUGAACCAGAGAAACACACGUUGUGGUAUAUUACCUGGUA [G1A C12G] as the variant, how does the self-cleavage read?
Answer: 0.263

Question: With AUCCUCUUUCACGUGGGCGUGAAAGAGAGAAGUGAACCAGAGAAACACACGUUGUGGUAUAUUACCUGGUA [G1A C16G] as the variant, how does the self-cleavage read?
Answer: 0.169

Question: With AUCCUCUUUCACGUGCGUGUGAAAGAGAGAAGUGAACCAGAGAAACACACGUUGUGGUAUAUUACCUGGUA [G1A C18U] as the variant, how does the self-cleavage read?
Answer: 0.256

Question: With AUCCUCUUUCACGUGCGCGUGAAAGAGAGAAGUGAAUCAGAGAAACACACGUUGUGGUAUAUUACCUGGUA [G1A C37U] as the variant, how does the self-cleavage read?
Answer: 0.196

Question: With AUCCUCUUUCACGUGCGCGUGAAAGAGAGAAGUGAACAAGAGAAACACACGUUGUGGUAUAUUACCUGGUA [G1A C38A] as the variant, how does the self-cleavage read?
Answer: 0.111

Question: For AUCCUCUUUCACGUGCGCGUGAAAGAGAGAAGUGAACCAGAGAAAGACACGUUGUGGUAUAUUACCUGGUA [G1A C46G], which self-cleavage is on record?
Answer: 0.104

Question: Which self-cleavage does the source give for AUCCUCUUUCACGUGCGCGUGAAAGAGAGAAGUGAACCAGAGAAACAGACGUUGUGGUAUAUUACCUGGUA [G1A C48G] here?
Answer: 0.201

Question: Which self-cleavage does the source give for AUCCUCUUUCACGUGCGCGUGAAAGAGAGAAGUGAACCAGAGAAACACAAGUUGUGGUAUAUUACCUGGUA [G1A C50A] here?
Answer: 0.127

Question: With AUCCUCUUUCACGUGCGCGUGAAAGAGAGAAGUGAACCAGAGAAACACAGGUUGUGGUAUAUUACCUGGUA [G1A C50G] as the variant, how does the self-cleavage read?
Answer: 0.277

Question: For AUCCUCUUUCACGUGCGCGUGAAAGAGAGAAGUGAACCAGAGAAACACACGUUGUGGUAUAUUACGUGGUA [G1A C66G], which self-cleavage is on record?
Answer: 0.225

Question: For AUCCUCUUUCACGUCCGCGUGAAAGAGAGAAGUGAACCAGAGAAACACACGUUGUGGUAUAUUACCUGGUA [G1A G15C], which self-cleavage is on record?
Answer: 0.287

Question: For AUCCUCUUUCACGUGCGCGUGAAACAGAGAAGUGAACCAGAGAAACACACGUUGUGGUAUAUUACCUGGUA [G1A G25C], which self-cleavage is on record?
Answer: 0.209

Question: With AUCCUCUUUCACGUGCGCGUGAAAGACAGAAGUGAACCAGAGAAACACACGUUGUGGUAUAUUACCUGGUA [G1A G27C] as the variant, how does the self-cleavage read?
Answer: 0.213

Question: With AUCCUCUUUCACGUGCGCGUGAAAGAGAGAAAUGAACCAGAGAAACACACGUUGUGGUAUAUUACCUGGUA [G1A G32A] as the variant, how does the self-cleavage read?
Answer: 0.196

Question: With AUCCUCUUUCACGUGCGCGUGAAAGAGAGAAUUGAACCAGAGAAACACACGUUGUGGUAUAUUACCUGGUA [G1A G32U] as the variant, how does the self-cleavage read?
Answer: 0.184

Question: Which self-cleavage does the source give for AUCCUCUUUCACGUGCGCGUGAAAGAGAGAAGUCAACCAGAGAAACACACGUUGUGGUAUAUUACCUGGUA [G1A G34C] here?
Answer: 0.09

Question: Which self-cleavage does the source give for AUCCUCUUUCACGUGCGCGUGAAAGAGAGAAGUUAACCAGAGAAACACACGUUGUGGUAUAUUACCUGGUA [G1A G34U] here?
Answer: 0.189

Question: Which self-cleavage does the source give for AUCCUCUUUCACGUGCGCGUGAAAGAGAGAAGUGAACCAGAUAAACACACGUUGUGGUAUAUUACCUGGUA [G1A G42U] here?
Answer: 0.0643

Question: For AUCCUCUUUCACGUGCGCGUGAAAGAGAGAAGUGAACCAGAGAAACACACAUUGUGGUAUAUUACCUGGUA [G1A G51A], which self-cleavage is on record?
Answer: 0.21

Question: Which self-cleavage does the source give for AUCCUCUUUCACGUGCGCGUGAAAGAGAGAAGUGAACCAGAGAAACACACGUUCUGGUAUAUUACCUGGUA [G1A G54C] here?
Answer: 0.193

Question: Which self-cleavage does the source give for AUCCUCUUUCACGUGCGCGUGAAAGAGAGAAGUGAACCAGAGAAACACACGUUGUCGUAUAUUACCUGGUA [G1A G56C] here?
Answer: 0.282

Question: With AUCCUCUUUCACGUGCGCGUGAAAGAGAGAAGUGAACCAGAGAAACACACGUUGUUGUAUAUUACCUGGUA [G1A G56U] as the variant, how does the self-cleavage read?
Answer: 0.0996

Question: Which self-cleavage does the source give for AUCCUCUUUCACGUGCGCGUGAAAGAGAGAAGUGAACCAGAGAAACACACGUUGUGAUAUAUUACCUGGUA [G1A G57A] here?
Answer: 0.177

Question: With AUCCUCUUUCACGUGCGCGUGAAAGAGAGAAGUGAACCAGAGAAACACACGUUGUGUUAUAUUACCUGGUA [G1A G57U] as the variant, how does the self-cleavage read?
Answer: 0.179

Question: For AUCCUCUUUCACGUGCGCGUGAAAGAGAGAAGUGAACCAGAGAAACACACGUUGUGGUAUAUUACCUCGUA [G1A G68C], which self-cleavage is on record?
Answer: 0.181

Question: For AUCCUCUUUCACGUGCGCGUGAAAGAGAGAAGUGAACCAGAGAAACACACGUUGUGGUAUAUUACCUGUUA [G1A G69U], which self-cleavage is on record?
Answer: 0.235

Question: For AUCCCCUUUCACGUGCGCGUGAAAGAGAGAAGUGAACCAGAGAAACACACGUUGUGGUAUAUUACCUGGUA [G1A U5C], which self-cleavage is on record?
Answer: 0.269

Question: For AUCCUCUUUCACGUGCGCGAGAAAGAGAGAAGUGAACCAGAGAAACACACGUUGUGGUAUAUUACCUGGUA [G1A U20A], which self-cleavage is on record?
Answer: 0.213

Question: For AUCCUCUUUCACGUGCGCGUGAAAGAGAGAAGGGAACCAGAGAAACACACGUUGUGGUAUAUUACCUGGUA [G1A U33G], which self-cleavage is on record?
Answer: 0.119

Question: Which self-cleavage does the source give for AUCCUCUUUCACGUGCGCGUGAAAGAGAGAAGUGAACCAGAGAAACACACGGUGUGGUAUAUUACCUGGUA [G1A U52G] here?
Answer: 0.0884

Question: Which self-cleavage does the source give for AUCCUCUUUCACGUGCGCGUGAAAGAGAGAAGUGAACCAGAGAAACACACGUUGUGGUAUAUCACCUGGUA [G1A U63C] here?
Answer: 0.166

Question: With AUCCUCUUUCACGUGCGCGUGAAAGAGAGAAGUGAACCAGAGAAACACACGUUGUGGUAUAUUACCCGGUA [G1A U67C] as the variant, how does the self-cleavage read?
Answer: 0.178

Question: Which self-cleavage does the source give for CUCCUCUUUCACGUGCGCGUGAAAGAGAGAAGUGAACCAGAGAAACACACGUUGUGGUAUAUUACCUGGUA [G1C] here?
Answer: 0.203
